In the supplement of paper PMC7125110:
± gives the standard error. Variants at the floor of the assay were thinned out.

B1: glmS ribozyme (parent)
chain: AUAAAAGCGCCAGAACUACAGAAAUGUAGUUGACGAGGAGGAGGUUUAUCGAAUUUUCGGCGGAUGCCUCCAAA

How the values were obtained:
Conditions in all cases: with glucosamine-6-phosphate
glucosamine-6-phosphate [1] = variants of: B1; experiment: self-cleavage kobs at 160 uM GlcN6P; higher = faster cleavage; RNA array
Summary of the method: (§1)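 E. coli RNA polymerase transcribed barcoded ribozyme variants in situ on sequenced MiSeq chips, which were tracked via a hybridised Cy3 probe at 37 °C. Tiles were imaged over ~14 h after glucosamine-6-phosphate (40 μM to 10 mM) in HEPES/KCl/Mg(OAc)2 buffer was flowed in. Normalised per-tile medians were fit to one- or two-exponential decays for kobs, and kcat and KM came from weighted Michaelis–Menten fits.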

glucosamine-6-phosphate [2] = variants of: B1; experiment: self-cleavage kobs at 640 uM GlcN6P; higher = faster cleavage; RNA array
Summary of the method: as §1

glucosamine-6-phosphate [3] = variants of: B1; experiment: self-cleavage kobs at 2500 uM GlcN6P; higher = faster cleavage; RNA array
Summary of the method: as §1

glucosamine-6-phosphate [4] = variants of: B1; experiment: self-cleavage kobs at 10000 uM GlcN6P; higher = faster cleavage; RNA array
Summary of the method: as §1

Variant	self-cleavage kobs at 160 uM GlcN6P (glucosamine-6-phosphate [1])	self-cleavage kobs at 640 uM GlcN6P (glucosamine-6-phosphate [2])	self-cleavage kobs at 2500 uM GlcN6P (glucosamine-6-phosphate [3])	self-cleavage kobs at 10000 uM GlcN6P (glucosamine-6-phosphate [4])
C61G G62A C67U C68A	0.000136 ± 2.6e-05 s⁻¹	4.43e-05 ± 1.5e-05 s⁻¹	0.000107 ± 2.2e-05 s⁻¹	–
A48U G59C	< 1e-05 s⁻¹	< 1e-05 s⁻¹	< 1e-05 s⁻¹	< 1e-05 s⁻¹
U57C G60U	< 1e-05 s⁻¹	< 1e-05 s⁻¹	< 1e-05 s⁻¹	< 1e-05 s⁻¹
U2C G32U G44A U47G	–	< 1e-05 s⁻¹	< 1e-05 s⁻¹	–
G7U G9A U31C G35A A52U	–	< 1e-05 s⁻¹	–	–
G7A C11G G40U	–	< 1e-05 s⁻¹	–	–
A6G A14G A33U	–	< 1e-05 s⁻¹	–	–
G62C U65G	< 1e-05 s⁻¹	< 1e-05 s⁻¹	–	–
C8A C11U A36G	–	< 1e-05 s⁻¹	< 1e-05 s⁻¹	–
U46A G51C A52G	< 1e-05 s⁻¹	< 1e-05 s⁻¹	< 1e-05 s⁻¹	–
G7A C8A G9A G62A	–	< 1e-05 s⁻¹	–	< 1e-05 s⁻¹
A6C G41A C68A U69C	–	< 1e-05 s⁻¹	–	< 1e-05 s⁻¹
U55G C68A	0.000151 ± 6.4e-05 s⁻¹	6.91e-05 ± 2.2e-05 s⁻¹	9.69e-05 ± 1.8e-05 s⁻¹	2.8e-05 ± 1.4e-05 s⁻¹
A6C U31C G62A	–	< 1e-05 s⁻¹	–	–
G7A U31G G41U C68U	–	< 1e-05 s⁻¹	–	–
A6U A39C G60A	–	< 1e-05 s⁻¹	–	–
G7C C10A C71A	–	< 1e-05 s⁻¹	–	–
G63A G66C	< 1e-05 s⁻¹	< 1e-05 s⁻¹	< 1e-05 s⁻¹	< 1e-05 s⁻¹
A6G U47G C61A A64U	–	< 1e-05 s⁻¹	–	–
G7C A42U	–	< 1e-05 s⁻¹	–	–
A6U G37A U55G C71G	–	< 1e-05 s⁻¹	–	< 1e-05 s⁻¹

Variant	self-cleavage kobs at 160 uM GlcN6P (glucosamine-6-phosphate [1])	self-cleavage kobs at 640 uM GlcN6P (glucosamine-6-phosphate [2])	self-cleavage kobs at 2500 uM GlcN6P (glucosamine-6-phosphate [3])	self-cleavage kobs at 10000 uM GlcN6P (glucosamine-6-phosphate [4])
G7A C16G U30G G44U A52G	–	< 1e-05 s⁻¹	< 1e-05 s⁻¹	–
U46C C58U C67A	< 1e-05 s⁻¹	–	–	–
C8A G13U G43A G44U G63U	–	< 1e-05 s⁻¹	–	–
C58G U69A	5.46e-05 ± 2.7e-05 s⁻¹	0.000406 ± 9.6e-05 s⁻¹	–	–
G60U C68U	< 1e-05 s⁻¹	–	–	< 1e-05 s⁻¹
U45G C61A	< 1e-05 s⁻¹	< 1e-05 s⁻¹	< 1e-05 s⁻¹	< 1e-05 s⁻¹
G7A A12G U31A C68G	–	0.000116 ± 3.5e-05 s⁻¹	–	–
A6U G44U U49G	–	< 1e-05 s⁻¹	–	–
A6C C10A C34G C50U U56A	–	< 1e-05 s⁻¹	< 1e-05 s⁻¹	–
A53C U56A G59C G63U	< 1e-05 s⁻¹	< 1e-05 s⁻¹	< 1e-05 s⁻¹	–
A48C C58G C71A	< 1e-05 s⁻¹	< 1e-05 s⁻¹	–	–
C8A G9C G37C	–	< 1e-05 s⁻¹	–	–
A6G A36G G41A	–	< 1e-05 s⁻¹	–	< 1e-05 s⁻¹
G7A A39U U49A	–	< 1e-05 s⁻¹	–	–
A6G C11U G51U	–	< 1e-05 s⁻¹	–	–
A6C A42C C50A U54G G59C C61U	–	< 1e-05 s⁻¹	–	–
A6G G35U C50U	–	< 1e-05 s⁻¹	–	–
A6U A15G G62U U69G	–	0.000197 ± 5.9e-05 s⁻¹	–	–
G7U C8A U30G G44C	–	< 1e-05 s⁻¹	–	–
G60A C61U G63A	< 1e-05 s⁻¹	–	< 1e-05 s⁻¹	–
G7U U49G G51C A64C G66C	–	< 1e-05 s⁻¹	< 1e-05 s⁻¹	–

Variant	self-cleavage kobs at 160 uM GlcN6P (glucosamine-6-phosphate [1])	self-cleavage kobs at 640 uM GlcN6P (glucosamine-6-phosphate [2])	self-cleavage kobs at 2500 uM GlcN6P (glucosamine-6-phosphate [3])	self-cleavage kobs at 10000 uM GlcN6P (glucosamine-6-phosphate [4])
A6U U56C C68G	–	< 1e-05 s⁻¹	< 1e-05 s⁻¹	–
G7A C16U C71A	–	< 1e-05 s⁻¹	–	–
A6U A12U G37U	–	< 1e-05 s⁻¹	–	–
G7C A39C G40C G44U	–	< 1e-05 s⁻¹	–	–
A6G G32U C61A	–	< 1e-05 s⁻¹	< 1e-05 s⁻¹	–
A6C A33G U46C C61G	–	< 1e-05 s⁻¹	< 1e-05 s⁻¹	–
A6U G38U A39C U55A	–	< 1e-05 s⁻¹	< 1e-05 s⁻¹	–
C50U U56C C67U	< 1e-05 s⁻¹	–	–	–
A6G G37A U46A U54A	–	< 1e-05 s⁻¹	–	< 1e-05 s⁻¹
U46G U49G G63A A64C	< 1e-05 s⁻¹	< 1e-05 s⁻¹	< 1e-05 s⁻¹	–
A6C G7A G29A C71U	–	< 1e-05 s⁻¹	< 1e-05 s⁻¹	–
G59U G60U G62A	< 1e-05 s⁻¹	–	< 1e-05 s⁻¹	–
G7U C61G C67A	–	0.000105 ± 4.6e-05 s⁻¹	0.00214 ± 0.00087 s⁻¹	–
U46G C58G U69G	6.07e-05 ± 2.5e-05 s⁻¹	–	–	–
G7U A36G G38U	–	< 1e-05 s⁻¹	–	–
U57G G62C A64U	< 1e-05 s⁻¹	–	< 1e-05 s⁻¹	< 1e-05 s⁻¹
G7U G32C G38C A42U C50U	–	< 1e-05 s⁻¹	–	–
U49A U54A C70G	4.17e-05 ± 1.8e-05 s⁻¹	–	–	–
C50U C70G	0.000293 ± 0.00013 s⁻¹	8.51e-05 ± 1.6e-05 s⁻¹	6.07e-05 ± 1.3e-05 s⁻¹	–
A4C G32U U47G	–	8.66e-05 ± 2.2e-05 s⁻¹	0.000118 ± 3.5e-05 s⁻¹	–
